From article PMC6811625, “Protein folding while chaperone bound is dependent on weak interactions” (Nature Communications, 2019)

B1: SpyQ100L (natural protein, E. coli, UniProt P77754 24-161, looked up)
chain: ADTTTAAPADAKPMMHHKGKFGPHQDMMFKDLNLTDAQKQQIREIMKGQRDQMKRPPLEERRAMHDIIASDTFDKVKAEAQIAKMEEQRKANMLAHMETLNKIYNILTPEQKKQFNANFEKRLTERPAAKGKMPATAE
notes: Spy of E. coli with Q100L; also called Spy variant Q100L; source: E. coli BL21 (DE3), purified (Ni-His Trap, HiTrap Q, Superdex 75); not shown: His, N-terminal, cleaved; SUMO, N-terminal, cleaved
B2: wild-type Spy (natural protein, E. coli, UniProt P77754 24-161, looked up)
chain: ADTTTAAPADAKPMMHHKGKFGPHQDMMFKDLNLTDAQKQQIREIMKGQRDQMKRPPLEERRAMHDIIASDTFDKVKAEAQIAKMEEQRKANMLAHMETQNKIYNILTPEQKKQFNANFEKRLTERPAAKGKMPATAE
notes: ATP-independent periplasmic chaperone Spy of E. coli; also called SpyWT; Spy dimer; source: E. coli BL21 (DE3), purified (Ni-His Trap, HiTrap Q, Superdex 75); not shown: His, N-terminal, cleaved; SUMO, N-terminal, cleaved
B3: SpyH96L (natural protein, E. coli, UniProt P77754 24-161, looked up)
chain: ADTTTAAPADAKPMMHHKGKFGPHQDMMFKDLNLTDAQKQQIREIMKGQRDQMKRPPLEERRAMHDIIASDTFDKVKAEAQIAKMEEQRKANMLALMETQNKIYNILTPEQKKQFNANFEKRLTERPAAKGKMPATAE
notes: Spy of E. coli with H96L; also called Spy variant H96L; source: E. coli BL21 (DE3), purified (Ni-His Trap, HiTrap Q, Superdex 75); not shown: His, N-terminal, cleaved; SUMO, N-terminal, cleaved
B4: wild-type Gallus gallus Fyn SH3 domain (T85-D142) (domain or fragment)
chain: not shown
notes: 7 residues added to the N terminus of the domain; Tyrosine-protein kinase Fyn, Gallus gallus, SH3 domain, residues T85-D142; a single arginine added to the C terminus of the domain; The same protein was measured native and unfolded (diluted from 9.5 M urea); the quantity of each row says which state; Primer 1 has a BamHI site (GGA TCC, Gly-Ser) before GAMVQIS, so further residues may remain after …

Experiments:
Settings in all cases: both partners purified
[1] = molecular target: B4; assay: stopped-flow tryptophan fluorescence kinetics with global fitting; KinTek SF-300X, 25 °C; HN buffer, 0.83 M urea after mixing; 4.8 μM SH3, refolded from 9.5 M urea or native, mixed 1:10.5 with varied Spy (concentrations as dimer); global fit (KinTek Explorer) to the mechanism that allows folding while bound; k-3 fixed at 1000 s^-1
wild-type Spy [2] = molecular target: B2; assay: ITC; MicroCal iTC200, 25 °C; HN buffer (40 mM HEPES pH 7.5, 50 mM NaCl) with 0.83 M urea; 2.4 mM SH3 in the syringe titrated into 100 μM Spy or Spy variant in the cell; one-site model; native SH3
wild-type Spy [3] = molecular target: B2; assay: as above; remark: listed apart in the source
SpyH96L = molecular target: B3; assay: as above
SpyQ100L = molecular target: B1; assay: as above

Binder	Kd (native SH3) [1] [µM]	Kd (unfolded SH3) [1] [µM]	k2 (association, unfolded SH3) [1] [M⁻¹ s⁻¹]	k3 (association, native SH3) [1] [M⁻¹ s⁻¹]	k-2 (dissociation, unfolded SH3) [1] [s⁻¹]	stoichiometry N (wild-type Spy [2])	Kd (wild-type Spy [3]) [µM]	Kd (SpyH96L) [µM]	Kd (SpyQ100L) [µM]
B1	17 ± 1	0.04 ± 0.003	1.71e+08 ± 8e+06	6e+07 ± 2e+06	6.8 ± 0.3				
B2	83 ± 55	2.9 ± 0.3	1.4e+07 ± 1e+06	1.2e+07 ± 8e+06	39 ± 3				
B3	11 ± 1	0.76 ± 0.05	2.3e+07 ± 1e+06	9.1e+07 ± 1e+07	17.4 ± 0.7				
B4						1	50 ± 6	71 ± 19	107 ± 25
